Laboratory results from the Human Domainome abundance scans (Beltran et al. 2025).
± gives the uncertainty stated by the source.

B1: GA-binding protein alpha chain, residues 172 to 250; numbered along this chain, Q06546 (parent)
chain: GYRKEQERLGIPYDPIQWSTDQVLHWVVWVMKEFSMTDIDLTTLNISGRELCSLNQEDFFQRVPRGEILWSHLELLRKY

Variants of: B1
Assay: abundance fitness (aPCA) (normalised: wild type 0, dead -1); higher = more abundant; growth selection in yeast, the domain comes from the species named
Details: Homo sapiens
L24K gave an abundance fitness of -0.038 ± 0.085.
With L24E the abundance fitness was -0.088 ± 0.055.
T42K showed an abundance fitness of -0.131 ± 0.067.
T42N gave an abundance fitness of -0.083 ± 0.12.
In the case of T42Y, the abundance fitness is reported as -0.1 ± 0.083.
Variant T42Q has an abundance fitness of -0.032 ± 0.054.
With T42L the abundance fitness was -0.162 ± 0.035.
Work on I11G yielded an abundance fitness of -0.752 ± 0.046.
I11L showed an abundance fitness of -0.191 ± 0.035.
Variant E74Q has an abundance fitness of -0.075 ± 0.11.
In the case of E74D, the abundance fitness is reported as -0.023 ± 0.058.
E74A showed an abundance fitness of -0.061 ± 0.044.
With E74K the abundance fitness was -0.106 ± 0.17.
With T20S the abundance fitness was 0.041 ± 0.036.
Work on T20G yielded an abundance fitness of -0.069 ± 0.032.
T20W showed an abundance fitness of -0.516 ± 0.061.
T20R showed an abundance fitness of -0.022 ± 0.032.
Work on K78R yielded an abundance fitness of 0.003 ± 0.033.
K78W gave an abundance fitness of -0.23 ± 0.047.
With K78H the abundance fitness was -0.015 ± 0.11.
Variant K78A has an abundance fitness of 0 ± 0.034.
For K78G, the abundance fitness was 0.033 ± 0.024.
Variant K78L has an abundance fitness of -0.135 ± 0.034.
Work on L51H yielded an abundance fitness of -0.928 ± 0.24.
For L51R, the abundance fitness was -0.813 ± 0.064.
L51W gave an abundance fitness of -1.04 ± 0.15.
With L51M the abundance fitness was -0.163 ± 0.048.
In the case of L51E, the abundance fitness is reported as -0.818 ± 0.13.
With I68Y the abundance fitness was -0.037 ± 0.071.
I68F gave an abundance fitness of -0.053 ± 0.077.
Work on V30D yielded an abundance fitness of -0.763 ± 0.13.
Work on F34C yielded an abundance fitness of -0.068 ± 0.068.
For F34Y, the abundance fitness was 0.015 ± 0.098.
In the case of F34H, the abundance fitness is reported as 0.077 ± 0.073.
With F34N the abundance fitness was 0.081 ± 0.066.
With F34T the abundance fitness was -0.061 ± 0.054.
For F34W, the abundance fitness was -0.092 ± 0.047.
Work on S35K yielded an abundance fitness of -0.028 ± 0.062.
S35M showed an abundance fitness of -0.14 ± 0.064.
In the case of S35P, the abundance fitness is reported as -0.091 ± 0.036.
For S35N, the abundance fitness was -0.009 ± 0.051.
With I39V the abundance fitness was 0.037 ± 0.034.
Variant I39W has an abundance fitness of -0.145 ± 0.028.
I39G gave an abundance fitness of -0.185 ± 0.036.
Variant I39K has an abundance fitness of -0.244 ± 0.093.
For Q22M, the abundance fitness was -0.219 ± 0.06.
With Q22S the abundance fitness was -0.646 ± 0.052.
Q22R gave an abundance fitness of -0.998 ± 0.094.
Q22V showed an abundance fitness of -0.992 ± 0.097.
V27S showed an abundance fitness of -0.171 ± 0.031.
Work on V27E yielded an abundance fitness of -0.913 ± 0.19.
For V27P, the abundance fitness was -0.668 ± 0.062.
For V27F, the abundance fitness was -0.256 ± 0.071.
V27R showed an abundance fitness of -0.436 ± 0.03.
V27M gave an abundance fitness of -0.106 ± 0.056.
Work on V27H yielded an abundance fitness of -0.758 ± 0.1.
Work on L41F yielded an abundance fitness of -0.094 ± 0.059.
Variant L41Q has an abundance fitness of -0.117 ± 0.056.
L41S gave an abundance fitness of -0.127 ± 0.042.
With L41Y the abundance fitness was -0.025 ± 0.1.
In the case of L41W, the abundance fitness is reported as -0.132 ± 0.048.
For S47V, the abundance fitness was -0.418 ± 0.047.
In the case of C52V, the abundance fitness is reported as -0.122 ± 0.045.
For C52Q, the abundance fitness was -0.615 ± 0.11.
C52T gave an abundance fitness of -0.226 ± 0.063.
Variant C52N has an abundance fitness of -0.47 ± 0.13.
Variant I46N has an abundance fitness of -0.644 ± 0.27.
With I46F the abundance fitness was -0.237 ± 0.1.
I46W showed an abundance fitness of -0.257 ± 0.043.
For I46Q, the abundance fitness was -0.828 ± 0.16.
For I46R, the abundance fitness was -0.909 ± 0.09.
For I46V, the abundance fitness was -0.109 ± 0.043.
I46S showed an abundance fitness of -1 ± 0.096.
I46A gave an abundance fitness of -0.584 ± 0.054.
Work on E57H yielded an abundance fitness of -0.023 ± 0.093.
Variant E57D has an abundance fitness of -0.063 ± 0.089.
In the case of L9Y, the abundance fitness is reported as -0.133 ± 0.082.
In the case of L9E, the abundance fitness is reported as -0.117 ± 0.067.
L9G showed an abundance fitness of -0.373 ± 0.035.
R62Y gave an abundance fitness of -0.133 ± 0.13.
For H72L, the abundance fitness was -0.751 ± 0.056.
H72E gave an abundance fitness of 0.009 ± 0.081.
W26A gave an abundance fitness of -0.904 ± 0.079.
In the case of W26N, the abundance fitness is reported as -0.894 ± 0.21.
W26T gave an abundance fitness of -1.03 ± 0.11.
For E7V, the abundance fitness was -0.172 ± 0.033.
E7D showed an abundance fitness of 0.031 ± 0.073.
With E7G the abundance fitness was -0.315 ± 0.029.
Work on E7T yielded an abundance fitness of -0.09 ± 0.046.
With S71A the abundance fitness was -0.046 ± 0.039.
Variant S71D has an abundance fitness of 0.027 ± 0.074.
With S71V the abundance fitness was -0.131 ± 0.046.
S71M gave an abundance fitness of -0.162 ± 0.076.
For W29Q, the abundance fitness was -0.724 ± 0.087.
W29K gave an abundance fitness of -0.816 ± 0.22.
W29R gave an abundance fitness of -0.9 ± 0.072.
For W29Y, the abundance fitness was -0.106 ± 0.065.
H25T gave an abundance fitness of -0.12 ± 0.054.
H25M gave an abundance fitness of -0.303 ± 0.079.
For H25I, the abundance fitness was -0.138 ± 0.095.
Y79P gave an abundance fitness of 0.009 ± 0.042.
Work on Y79G yielded an abundance fitness of 0.031 ± 0.067.
Variant E67W has an abundance fitness of -0.153 ± 0.05.
E67C gave an abundance fitness of -0.19 ± 0.11.
Work on Q61M yielded an abundance fitness of -0.022 ± 0.06.
For Q61I, the abundance fitness was -0.178 ± 0.11.
Q61C showed an abundance fitness of -0.091 ± 0.075.
With Q61E the abundance fitness was -0.041 ± 0.059.
For N55T, the abundance fitness was -0.025 ± 0.047.
For N55M, the abundance fitness was -0.291 ± 0.054.
For N55F, the abundance fitness was -0.712 ± 0.087.
N55H gave an abundance fitness of -0.124 ± 0.063.
L76I showed an abundance fitness of -0.236 ± 0.096.
Work on L76H yielded an abundance fitness of -0.317 ± 0.19.
With E50W the abundance fitness was -0.672 ± 0.049.
In the case of E50N, the abundance fitness is reported as -0.252 ± 0.091.
In the case of E50G, the abundance fitness is reported as -0.594 ± 0.038.
In the case of E50Q, the abundance fitness is reported as 0.013 ± 0.056.
For E50K, the abundance fitness was -0.041 ± 0.088.
Work on S19H yielded an abundance fitness of -0.096 ± 0.17.
Work on S19F yielded an abundance fitness of -0.849 ± 0.12.
Work on S19P yielded an abundance fitness of -0.82 ± 0.1.
F60H gave an abundance fitness of -0.118 ± 0.13.
Work on F60K yielded an abundance fitness of -0.048 ± 0.092.
In the case of F60T, the abundance fitness is reported as -0.044 ± 0.061.
With F60P the abundance fitness was -0.527 ± 0.062.
F60Y gave an abundance fitness of -0.06 ± 0.1.
Work on F60L yielded an abundance fitness of 0.033 ± 0.042.
M36Y showed an abundance fitness of -0.053 ± 0.1.
Variant M36K has an abundance fitness of -0.062 ± 0.043.
In the case of M36E, the abundance fitness is reported as -0.031 ± 0.054.
Work on F59W yielded an abundance fitness of -0.263 ± 0.051.
Work on K4W yielded an abundance fitness of -0.12 ± 0.041.
For K4I, the abundance fitness was 0.054 ± 0.062.
Work on S53Q yielded an abundance fitness of -0.085 ± 0.064.
With S53T the abundance fitness was -0.144 ± 0.09.
In the case of S53W, the abundance fitness is reported as -0.381 ± 0.064.
Work on S53N yielded an abundance fitness of -0.033 ± 0.085.
With D38K the abundance fitness was -0.091 ± 0.057.
With D38P the abundance fitness was -0.009 ± 0.037.
D38S showed an abundance fitness of -0.063 ± 0.039.
With P64T the abundance fitness was -0.333 ± 0.044.
In the case of P64F, the abundance fitness is reported as -0.611 ± 0.23.
Variant P64Q has an abundance fitness of -0.266 ± 0.05.
Variant Q56G has an abundance fitness of -0.245 ± 0.04.
Q56N gave an abundance fitness of -0.455 ± 0.13.
P15Q gave an abundance fitness of -0.878 ± 0.19.
In the case of P15V, the abundance fitness is reported as -0.243 ± 0.036.
For L73M, the abundance fitness was -0.347 ± 0.059.
In the case of L73Q, the abundance fitness is reported as -0.713 ± 0.22.
In the case of L75Q, the abundance fitness is reported as -0.08 ± 0.053.
In the case of L75S, the abundance fitness is reported as 0.046 ± 0.039.
L75D showed an abundance fitness of -0.022 ± 0.093.
Variant L69I has an abundance fitness of -0.499 ± 0.19.
L69D showed an abundance fitness of -0.758 ± 0.38.
D40R showed an abundance fitness of -0.292 ± 0.032.
Variant Q6P has an abundance fitness of -0.739 ± 0.12.
In the case of Q6W, the abundance fitness is reported as -0.498 ± 0.071.
W70K gave an abundance fitness of -0.872 ± 0.25.
Variant W70V has an abundance fitness of -0.92 ± 0.1.
W70F showed an abundance fitness of -0.181 ± 0.083.
Variant W70T has an abundance fitness of -1.05 ± 0.16.
Variant R3C has an abundance fitness of -0.206 ± 0.055.
Work on R3L yielded an abundance fitness of -0.182 ± 0.041.
With R3E the abundance fitness was -0.004 ± 0.075.
In the case of R3K, the abundance fitness is reported as -0.083 ± 0.071.
E33D gave an abundance fitness of 0.021 ± 0.077.
